{
  "source": "patent US20030082740A1",
  "about": "“Histidine proline rich glycoprotein (HPRG) as an anti-angiogenic and anti-tumor agent” (priority 2001, published 2003)",
  "molecules": {"B1": {"name": "HPRG: Histidine proline rich glycoprotein; rabbit HPRG has SEQ ID NO:3; applicants' designation ATN-234 (protein, UniProt P04196 19-525, looked up)", "Histidine-rich glycoprotein": "VSPTDCSAVEPEAEKALDLINKRRRDGYLFQLLRIADAHLDRVENTTVYYLVLDVQESDCSVLSRKYWNDCEPPDSRRPSEIVIGQCKVIATRHSHESQDLRVIDFNCTTSSVSSALANTKDSPVLIDFFEDTERYRKQANKALEKYKEENDDFASFRVDRIERVARVRGGEGTGYFVDFSVRNCPRHHFPRHPNVFGFCRADLFYDVEALDLESPKNLVINCEVFDPQEHENINGVPPHLGHPFHWGGHERSSTTKPPFKPHGSRDHHHPHKPHEHGPPPPPDERDHSHGPPLPQGPPPLLPMSCSSCQHATFGTNGAQRHSHNNNSSDLHPHKHHSHEQHPHGHHPHAHHPHEHDTHRQHPHGHHPHGHHPHGHHPHGHHPHGHHPHCHDFQDYGPCDPPPHNQGHCCHGHGPPPGHLRRRGPGKGPRPFHCRQIGSVYRLPPLRKGEVLPLPEANFPSFPLPHHKHPLKPDNQPFPQSVSESCPGKFKSGFPQVSMFFTHTFPK"}},
  "key": {"HUVEC": {"system": "HUVEC", "assay": "Endothelial cell tube formation on Matrigel", "assay_type": "cell-based, human", "conditions": "for Inhibits Angiogenesis (Matrigel® assay): tube formation, concentration not stated", "protocol": "Endothelial cells, for example, human umbilical vein endothelial cells (HUVEC) or human microvascular endothelial cells (HMVEC) which can be prepared or obtained commercially, are mixed at a concentration of 2×10^5 cells/mL with fibrinogen (5 mg/mL in phosphate buffered saline (PBS) in a 1:1 (v/v) ratio. Thrombin is added (5 units/ mL final concentration) and the mixture is immediately transferred to a 24-well plate (0.5 mL per well). The fibrin gel is allowed to form and then VEGF and bFGF are added to the wells (each at 5 ng/mL final concentration) along with the test compound. The cells are incubated at 37° C. in 5% CO2 for 4 days at which time the cells in each well are counted and classified as either rounded, elongated with no branches, elongated with one branch, or elongated with 2 or more branches. Results are expressed as the average of 5 different wells for each concentration of compound. Typically, in the presence of angiogenic inhibitors, cells remain either rounded or form undifferentiated tubes (e.g. 0 or 1 branch).\nThis assay is recognized in the art to be predictive of angiogenic (or anti-angiogenic) efficacy in vivo (Min, H Y et al., Cancer Res. 56: 2428-2433,1996). In an alternate assay, endothelial cell tube formation is observed when endothelial cells are cultured on Matrigel® (Schnaper et al., J. Cell. Physiol. 165:107-118 1995). Endothelial cells (1×10^4 cells/well) are transferred onto Matrigel®-coated 24-well plates, and tube formation is quantitated after 48 hrs. Inhibitors are tested by adding them either at the same time as the endothelial cells or at various time points thereafter. Tube formation can also be stimulated by adding (a) angiogenic growth factors such as bFGF or VEGF, (b) differentiation stimulating agents (e.g.,. PMA) or (c) a combination of these.\nHUVEC were seeded onto Matrigel®-coated 96 well plates. Photomicrographs showing results are in FIGS. 4A and 4B.\nEndothelial cell tube formation on Matrigel® was stimulated by incubation for 24 hr with FGF-2 (20 ng/ml ), VEGF (20 ng/ml ) and PMA (40 ng/ml ) for 24 hours (FIG. 4A).\nMatrigel® tube formation assays in vitro were carried out as described above."}, "caspase-3": {"system": "caspase-3", "assay": "Caspase-3 activity in bFGF-stimulated HUVEC", "assay_type": "cell-based, human", "conditions": "rHPRG at 10 and 100 nM, H/P at similar concentrations, relative to HKa", "protocol": "The ability of the compounds of the invention to promote apoptosis of EC's may be determined by measuring activation of caspase-3. Type I collagen (gelatin) is used to coat a P100 plate and 5×10^5 ECs are seeded in EGM containing 10% FBS. After 24 hours (at 37° C. in 5% CO2) the medium is replaced by EGM containing 2% FBS, 10 ng/ml bFGF and the desired test compound. The cells are harvested after 6 hours, cell lysates prepared in 1% Triton and assayed using the EnzChek® Caspase-3 Assay Kit #1 (Molecular Probes) according to the manufactures' instructions.\nIn order to evaluate whether the observed anti-proliferative activity of HPRG was due to an induction of apoptosis, the activity of caspase-3 (an enzyme that is central to several pro-apoptotic pathways) was measured. HUVEC were grown in 100 mm^2 petri dishes in the presence of bFGF or bFGF+HPRG. Cells were extracted and caspase-3 activity measured using a fluorescent substrate."}, "[1]": {"system": "CAM of an 8-day old chick embryo", "assay": "Chick chorioallantoic membrane (CAM) angiogenesis assay", "assay_type": "in vivo", "conditions": "inhibitor at 20 μg/ml with bFGF 30 μg/ml; counted 4 days after implantation", "protocol": "This assay is performed essentially as described by Nguyen et al. (Microvascular Res. 47:31-40 (1994)). A mesh containing either angiogenic factors (bFGF) or tumor cells plus inhibitors is placed onto the CAM of an 8-day old chick embryo and the CAM observed for 3-9 days after implantation of the sample. Angiogenesis is quantitated by determining the percentage of squares in the mesh which contain blood vessels.\nThis assay was performed essentially as described by Nguyen et al. (Microvascular Res. 47:31-40 (1994)). […] Angiogenesis was quantitated by counting the number of microvessels that contacted the filter. In this experiment, microvessel were counted 4 days after implantation of the filter."}, "[2]": {"system": "Lewis lung adenocarcinoma 3LL cells", "assay": "Matrigel plug model, 3LL tumor cell-mediated angiogenesis", "assay_type": "in vivo, mouse", "conditions": "concentration not given; FIG. 7 legend", "text": "In this assay, tumor cells, for example 1-5×10^6 cells of the 3LL Lewis lung carcinoma or the rat prostate cell line MatLyLu, are mixed with Matrigel® and then injected into the flank of a mouse following the protocol described in Sec. B., above. A mass of tumor cells and a powerful angiogenic response can be observed in the plugs after about 5 to 7 days. The anti-tumor and anti-angiogenic action of a compound in an actual tumor environment can be evaluated by including it in the plug. Measurement is then made of tumor weight, Hb levels or fluorescence levels (of a dextran-fluorophore conjugate injected prior to sacrifice). To measure Hb or fluorescence, the plugs are first homogenize with a tissue homogenizer.\nThe methods used in this study were essentially the same as described in Example VI except that 3LL tumor cells were used to stimulate angiogenesis instead of bFGF. Lewis lung adenocarcinoma 3LL cells (10^6 cells/plug) were mixed with cold Matrigel prior to injection. After seven days, the animals are sacrificed by cervical dislocation and the Matrigel® plugs recovered and processed as above."}, "[3]": {"system": "angiogenesis stimulated by FGF-2", "assay": "Matrigel plug model, angiogenesis stimulated by FGF-2", "assay_type": "in vivo, mice", "conditions": "0.25 μM in plug; 7 days", "protocol": "This assay is performed essentially as described by Passaniti et al. (Lab Invest. 67:519-528 (1992). Ice-cold Matrigel® (e.g., 500 μL) (Collaborative Biomedical Products, Inc., Bedford, Mass.) is mixed with heparin (e.g., 50 μg/ml), FGF-2 (e.g., 400 ng/ml) and the compound to be tested. In some assays, bFGF may be substituted with tumor cells as the angiogenic stimulus. The Matrigel® mixture is injected subcutaneously into 4-8 week-old athymic nude mice at sites near the abdominal midline, preferably 3 injections per mouse. The injected Matrigel® forms a palpable solid gel. Injection sites are chosen such that each animal receives a positive control plug (such as FGF-2+ heparin), a negative control plug (e.g., buffer+heparin) and a plug that includes the compound being tested for its effect on angiogenesis, e.g., (FGF-2+heparin+compound). […] Hemoglobin (Hb) levels are determined using Drabkin's solution (e.g., obtained from Sigma) according to the manufacturers' instructions. […] The amount of fluorescence in the dispersed plug, determined fluorimetrically, also serves as a measure of angiogenesis in the plug. […]\nIn this study, ice-cold Matrigel® (500 μL) was mixed with heparin (50 μg/ml), FGF-2 (400 ng/ml) and the compound to be tested. […] Hemoglobin levels were determined using Drabkin's solution (from Sigma) according to the manufacturers' instructions."}, "[4]": {"system": "human umbilical vein endothelial cell (HUVEC)", "assay": "bFGF-stimulated HUVEC proliferation (MTS)", "assay_type": "cell-based", "conditions": "48 hours", "protocol": "The ability of the compounds of the invention to inhibit the proliferation of EC's may be determined in a 96-well format. Type I collagen (gelatin) is used to coat the wells of the plate (0.1-1 mg/mL in PBS, 0.1 mL per well for 30 minutes at room temperature). After washing the plate (3× w/PBS), 3-6,000 cells are plated per well and allowed to attach for 4 hrs (37° C./5% CO2) in Endothelial Growth Medium (EGM; Clonetics) or M199 media containing 0.1-2% FBS. The media and any unattached cells are removed at the end of 4 hrs and fresh media containing bFGF (1-10 ng/mL) or VEGF (1-10 ng/mL) is added to each well. Compounds to be tested are added last and the plate is allowed to incubate (37° C./5% CO2) for 24-48 hrs. MTS (Promega) is added to each well and allowed to incubate from 1-4 hrs. The absorbance at 490 nm, which is proportional to the cell number, is then measured to determine the differences in proliferation between control wells and those containing test compounds.\nbFGF is used to stimulate human umbilical vein endothelial cell (HUVEC) proliferation. Cells are incubated in the presence of bFGF alone or with added inhibitors of proliferation for 48 hours in a 96 well plate. Proliferation is then measured using the colorimetric reagent, MTS. […]"}},
  "note": "“Also recorded” adds a separate entry of the source.",
  "data": [
    {"molecule": "APPHG [ATN246]", "values": [
      {"measurement": "Inhibits Angiogenesis (Matrigel® assay)", "setting": "HUVEC", "value": "No"},
      {"measurement": "Inhibits Angiogenesis (Matrigel® assay)", "setting": "HUVEC; listed as APPHG", "value": "no effect on neovascularization"}
    ]},
    {"molecule": "His-His-Pro-His-Gly (HHPHG; printed: His-His-Pro-His-Gly) [ATN230]", "values": [
      {"measurement": "Inhibits Angiogenesis (Matrigel® assay)", "setting": "HUVEC", "value": "Yes"},
      {"measurement": "Inhibits Angiogenesis (Matrigel® assay)", "setting": "HUVEC; listed as HHPHG", "value": "active"}
    ]},
    {"molecule": "His-Pro-Pro-His-Gly (HPPHG; printed: His-Pro-Pro-His-Gly) [ATN228]", "values": [
      {"measurement": "Inhibits Angiogenesis (Matrigel® assay)", "setting": "HUVEC", "value": "Yes"},
      {"measurement": "Inhibits Angiogenesis (Matrigel® assay)", "setting": "HUVEC; listed as HPPHG", "value": "active"}
    ]},
    {"molecule": "B1", "values": [
      {"measurement": "induction of caspase-3 activity", "setting": "caspase-3", "value": "induction of caspase-3"},
      {"measurement": "endothelial cell tube formation on Matrigel", "setting": "HUVEC; 500 nM, stimulated with FGF-2, VEGF and PMA for 24 hours", "value": "almost completely disrupted tube formation; also recorded: inhibition of EC tube formation"},
      {"measurement": "neovessel formation (blood vessel number)", "setting": "[1]", "value": "capable of inhibiting neovessel formation; also recorded: inhibit angiogenesis"},
      {"measurement": "inhibition of 3LL tumor-mediated angiogenesis", "setting": "[2]", "value": "inhibit 3LL tumor-mediated angiogenesis"},
      {"measurement": "inhibition of angiogenesis (hemoglobin in plug)", "setting": "[3]", "value": "completely inhibited angiogenesis; also recorded: inhibit angiogenesis"},
      {"measurement": "inhibition of bFGF-stimulated proliferation of HUVEC", "setting": "[4]; 100 nM, FIG. 2A", "value": "almost complete"},
      {"measurement": "inhibition of bFGF-stimulated proliferation of HUVEC", "setting": "[4]; concentration not given, FIGS. 2A, 2B", "value": "inhibit proliferation"}
    ]}
  ]
}
